Measured values reported in US9958461B2, “Detection of protein to protein interactions” (THE GOVERNING COUNCIL OF THE UNIVERSITY OF TORONTO, priority 2013, dated 2018).

B1: GRB10 (protein, UniProt Q13322 1-594, looked up)
Growth factor receptor-bound …: MALAGCPDSFLHHPYYQDKVEQTPRSQQDPAGPGLPAQSDRLANHQEDDVDLEALVNDMNASLESLYSACSMQSDTVPLLQNGQHARSQPRASGPPRSIQPQVSPRQRVQRSQPVHILAVRRLQEEDQQFRTSSLPAIPNPFPELCGPGSPPVLTPGSLPPSQAAAKQDVKVFSEDGTSKVVEILADMTARDLCQLLVYKSHCVDDNSWTLVEHHPHLGLERCLEDHELVVQVESTMASESKFLFRKNYAKYEFFKNPMNFFPEQMVTWCQQSNGSQTQLLQNFLNSSSCPEIQGFLHVKELGKKSWKKLYVCLRRSGLYCSTKGTSKEPRHLQLLADLEDSNIFSLIAGRKQYNAPTDHGLCIKPNKVRNETKELRLLCAEDEQTRTCWMTAFRLLKYGMLLYQNYRIPQQRKALLSPFSTPVRSVSENSLVAMDFSGQTGRVIENPAEAQSAALEEGHAWRKRSTRMNILGSQSPLHPSTLSTVIHRTQHWFHGRISREESHRIIKQQGLVDGLFLLRDSQSNPKAFVLTLCHHQKIKNFQILPCEDDGQTFFSLDDGNTKFSDLIQLVDFYQLNKGVLPCKLKHHCIRVAL
B2: PRKCE (protein, UniProt Q02156 1-737, looked up)
Protein kinase C epsilon type: MVVFNGLLKIKICEAVSLKPTAWSLRHAVGPRPQTFLLDPYIALNVDDSRIGQTATKQKTNSPAWHDEFVTDVCNGRKIELAVFHDAPIGYDDFVANCTIQFEELLQNGSRHFEDWIDLEPEGRVYVIIDLSGSSGEAPKDNEERVFRERMRPRKRQGAVRRRVHQVNGHKFMATYLRQPTYCSHCRDFIWGVIGKQGYQCQVCTCVVHKRCHELIITKCAGLKKQETPDQVGSQRFSVNMPHKFGIHNYKVPTFCDHCGSLLWGLLRQGLQCKVCKMNVHRRCETNVAPNCGVDARGIAKVLADLGVTPDKITNSGQRRKKLIAGAESPQPASGSSPSEEDRSKSAPTSPCDQEIKELENNIRKALSFDNRGEEHRAASSPDGQLMSPGENGEVRQGQAKRLGLDEFNFIKVLGKGSFGKVMLAELKGKDEVYAVKVLKKDVILQDDDVDCTMTEKRILALARKHPYLTQLYCCFQTKDRLFFVMEYVNGGDLMFQIQRSRKFDEPRSRFYAAEVTSALMFLHQHGVIYRDLKLDNILLDAEGHCKLADFGMCKEGILNGVTTTTFCGTPDYIAPEILQELEYGPSVDWWALGVLMYEMMAGQPPFEADNEDDLFESILHDDVLYPVWLSKEAVSILKAFMTKNPHKRLGCVASQNGEDAIKQHPFFKEIDWVLLEQKKIKPPFKPRIKTKRDVNNFDQDFTREEPVLTLVDEAIVKQINQEEFKGFSYFGEDLMP
B3: SNX9 (protein, UniProt Q9Y5X1 1-595, looked up)
Sorting nexin-9: MATKARVMYDFAAEPGNNELTVNEGEIITITNPDVGGGWLEGRNIKGERGLVPTDYVEILPSDGKDQFSCGNSVADQAFLDSLSASTAQASSSAASNNHQVGSGNDPWSAWSASKSGNWESSEGWGAQPEGAGAQRNTNTPNNWDTAFGHPQAYQGPATGDDDDWDEDWDGPKSSSYFKDSESADAGGAQRGNSRASSSSMKIPLNKFPGFAKPGTEQYLLAKQLAKPKEKIPIIVGDYGPMWVYPTSTFDCVVADPRKGSKMYGLKSYIEYQLTPTNTNRSVNHRYKHFDWLYERLLVKFGSAIPIPSLPDKQVTGRFEEEFIKMRMERLQAWMTRMCRHPVISESEVFQQFLNFRDEKEWKTGKRKAERDELAGVMIFSTMEPEAPDLDLVEIEQKCEAVGKFTKAMDDGVKELLTVGQEHWKRCTGPLPKEYQKIGKALQSLATVFSSSGYQGETDLNDAITEAGKTYEEIASLVAEQPKKDLHFLMECNHEYKGFLGCFPDIIGTHKGAIEKVKESDKLVATSKITLQDKQNMVKRVSIMSYALQAEMNHFHSNRIYDYNSVIRLYLEQQVQFYETIAEKLRQALSRFPVM

target: T1, EGFR-Wt (Homo sapiens, UniProt P00533); test: MaMTH EGFR-interactor screen, lentiviral preys against EGFR-wildtype bait (interaction score); format: cell-based; settings: MaMTH interaction score of prey with EGFR-Wt bait, mean
T1 construct: with the advantage of testing full-length integral membrane proteins; (GGGGS)2 linker-Cub (human ubiquitin aa 35-76)-GAL4(1-147)-mNFkB(364-550) (C); expressed in transfected cells
Method in brief: (§1)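 Interaction score is the luciferase fold-change versus averaged negative controls (Fabp5, Pex19, Pex7, GABBR2), with >1 called interacting. Luciferase was measured 24 h after triplicate bait transfection. This followed single-copy prey transduction (MOI ~0.3-0.4) of GAL4UAS-luciferase HEK293T cells and ≥48 h puromycin selection.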

Row | EGFR-Wt mean | Molecule
1 | 3.14 | B1
2 | 6.30 | B2
3 | 1.67 | B3

test system: EGFR-Wt; test: as above; format: cell-based, human; settings: ratio of EGFR-Wt mean to EGFR-L858R mean interaction score
Method in brief: as §1

Row | Molecule | Wt/L858R
4 | B1 | 0.90
5 | B2 | 0.93
6 | B3 | 0.88

target: T2, EGFR-L858R (Homo sapiens, UniProt P00533, L858R); test: MaMTH EGFR-interactor screen, lentiviral preys against EGFR-L858R bait (interaction score); format: cell-based; settings: MaMTH interaction score of prey with EGFR-L858R bait
T2 construct: with the advantage of testing full-length integral membrane proteins; (GGGGS)2 linker-Cub (human ubiquitin aa 35-76)-GAL4(1-147)-mNFkB(364-550) (C); expressed in transfected cells
Method in brief: as §1

Row | EGFR-L858R mean | Molecule
7 | 3.49 | B1
8 | 6.77 | B2
9 | 1.89 | B3
